Experimental data from patent US20200292536A1.

Key:
[1] = molecular target: BCL2 peptide Ac-…-amide (amino acids 41-54 of human BCL2 with linkers) (human); experiment: imaging mass cytometry; peptide 2.50E-05 M in core (second core); Ab 5 ug/ml
[2] = molecular target: BCL2 peptide Ac-…-amide (amino acids 41-54 of human BCL2 with linkers) (human); experiment: imaging mass cytometry; peptide 2.50E-05 M in core
[3] = molecular target: BCL2 peptide Ac-…-amide (amino acids 41-54 of human BCL2 with linkers) (human); experiment: imaging mass cytometry; peptide 2.50E-04 M in core
[4] = molecular target: BCL2 peptide Ac-…-amide (amino acids 41-54 of human BCL2 with linkers) (human); experiment: imaging mass cytometry; peptide 2.50E-07 M in core; Ab 10 ug/ml
[5] = molecular target: BCL2 peptide Ac-…-amide (amino acids 41-54 of human BCL2 with linkers) (human); experiment: imaging mass cytometry; peptide 2.50E-05 M in core (second core); Ab 1 ug/ml
[6] = molecular target: BCL2 peptide Ac-…-amide (amino acids 41-54 of human BCL2 with linkers) (human); experiment: imaging mass cytometry; peptide 2.50E-08 M in core (second core); Ab 10 ug/ml
[7] = molecular target: Bovine serum albumin (BSA; Ultra Pure) (bovine) (UniProt P02769); experiment: imaging mass cytometry; no peptide (second background core); Ab 10 ug/ml
Sequence of UniProt P02769 (P02769 25-607 limits assumed): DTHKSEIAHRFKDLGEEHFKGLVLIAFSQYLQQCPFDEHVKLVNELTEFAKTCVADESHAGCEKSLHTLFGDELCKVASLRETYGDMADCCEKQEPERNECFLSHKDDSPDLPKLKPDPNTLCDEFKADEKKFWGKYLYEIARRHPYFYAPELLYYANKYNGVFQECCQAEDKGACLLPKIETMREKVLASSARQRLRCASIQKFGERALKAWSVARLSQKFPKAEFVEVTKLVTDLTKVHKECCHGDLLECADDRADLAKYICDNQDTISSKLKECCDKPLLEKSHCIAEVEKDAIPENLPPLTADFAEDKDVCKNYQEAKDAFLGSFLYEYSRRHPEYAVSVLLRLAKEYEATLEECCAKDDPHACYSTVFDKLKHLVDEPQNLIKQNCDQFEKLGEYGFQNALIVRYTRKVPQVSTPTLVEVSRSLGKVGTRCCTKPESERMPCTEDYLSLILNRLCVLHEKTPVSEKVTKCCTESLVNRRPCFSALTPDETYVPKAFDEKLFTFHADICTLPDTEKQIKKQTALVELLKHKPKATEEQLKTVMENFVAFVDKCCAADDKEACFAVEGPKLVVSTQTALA

[8] = molecular target: BCL2 peptide Ac-…-amide (amino acids 41-54 of human BCL2 with linkers) (human); experiment: imaging mass cytometry; peptide 2.50E-07 M in core (second core); Ab 5 ug/ml
[9] = molecular target: BCL2 peptide Ac-…-amide (amino acids 41-54 of human BCL2 with linkers) (human); experiment: imaging mass cytometry; peptide 2.50E-04 M in core; Ab 5 ug/ml
[10] = molecular target: BCL2 peptide Ac-…-amide (amino acids 41-54 of human BCL2 with linkers) (human); experiment: imaging mass cytometry; peptide 2.50E-06 M in core (second core); Ab 10 ug/ml
[11] = molecular target: Bovine serum albumin (BSA; Ultra Pure) (bovine) (UniProt P02769); experiment: imaging mass cytometry; no peptide (second background core); Ab 5 ug/ml

Sequence of BCL2 peptide Ac-…-amide (amino acids 41-54 of human BCL2 with linkers) (human) (peptide, as listed by the source): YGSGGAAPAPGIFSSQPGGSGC

- Integrated Ion counts (per 150 micron square ROI) [1]: 15100 ion counts
- Average Ion count [2]: 32600 ion counts
- Ion count above background [2]: 31500 ion counts
- Moles ^146Nd Ab detected per ROI [2]: 1.76e-17 mol
- ^146Nd Ab/peptide [2]: 0.78%
- Average Ion count [3]: 58300 ion counts
- Ion count above background [3]: 56900 ion counts
- Moles ^146Nd Ab detected per ROI [3]: 3.2e-17 mol
- ^146Nd Ab/peptide [3]: 0.14%
- Integrated Ion counts (per 150 micron square ROI) [4]: 1550 ion counts
- Integrated Ion counts (per 150 micron square ROI) [5]: 43900 ion counts
- Integrated Ion counts (per 150 micron square ROI) [6]: 1720 ion counts
- Integrated Ion counts (per 150 micron square ROI) [7]: 1160 ion counts
- Integrated Ion counts (per 150 micron square ROI) [8]: 1400 ion counts
- Integrated Ion counts (per 150 micron square ROI) [9]: 35300 ion counts
- Integrated Ion counts (per 150 micron square ROI) [10]: 3910 ion counts
- Integrated Ion counts (per 150 micron square ROI) [11]: 2380 ion counts
Substance: Fluidigm EPR17509-^146Nd antibody
